In US8030017B2, “Thermostable luciferases and methods of production” (Promega Corporation, priority 1997, dated 2011):

Tests used:
[1] = Luminescence signal intensity and signal stability in vitro of LucPpl luciferases; type: biochemical; conditions: lysate with 1% Triton X-100
Source text: For luminescence assays requiring only a few second, the wild-type yellow-green-emitting luciferase produces a very stable signal (the initial rise in the signal evident in the first 2 seconds is due to the response time of the luminometer, not the kinetics of the luminescence reaction). However, the signal intensity was reduced about 30% by the presence of 1% Triton X-100 in the lysate (diluted 1:5 with the addition of assay reagent). In contrast, the luminescence intensity of the mutant luciferases was unaffected by the presence of Triton X-100. […] However, the data are not corrected for the efficiency of enzyme expression in E. coli. Thus, differences in luminescence intensity may not correlate to changes in enzyme specific activity, nor is the expression efficiency in E. coli necessarily relevant to expression in mammalian cells.
For batches of assays requiring more than an hour to process, the signal stability of the yellow-green-emitting luciferase is inadequate under the conditions tested. […] Attempts to correct this by the in vitro evolution yielded mixed results. The signal stability of all three mutant enzymes was generally much improved over the parent yellow-green enzyme for three hours after substrate addition. However, this was accompanied by a greater initial decrease in luminescence during the first half-hour. […]

[2] = Robotic thermostability screen of LucPpl mutants: decrease of activity over 10 hours at screening temperature; type: physicochemical; conditions: 47° C., third cycle of random mutagenesis
Method: “Enzyme stability” was determined by the rate of activity loss from cell lysates over 10 hours. In successive rounds of evolution the incubation temperature of the lysates was increased.
To prepare luciferases having certain performance, a method for in vitro evolution of enzyme function, as described above, was employed. Briefly described, the method is a recursive process of generating random mutations and screening for desirable properties. It was originally developed primarily to increase the thermostability of luciferases, although other enzymological characteristics are also subject to optimization by the screening criteria. A slightly different strategy was used to achieve the properties described above since two related luciferases needed to be optimized concomitantly.
The luciferases from P. plagiophthalamus have 13 cysteines, which are potentially sensitive to oxidation. This is in contrast to the commonly used firefly luciferase, which has only 4 cysteines. To remove any cysteines that may limit enzyme stability, oligonucleotide-directed mutagenesis was used to randomize the cysteine codons. Three sets of oligonucleotides were used: non-conserved cysteines in regions of low sequence homology (positions 69, 114, 160, 194, 335, and 460), non-conserved cysteines in regions of higher sequence homology (positions 127, 213, 310, and 311), and highly conserved cysteines (positions 60, 80, and 388). […]
The random mutagenesis process was repeated using the best clone from the previous cycle of mutagenesis (Luc53-0G01). […] The discrepancy in measured activity of Luc53-0G01 in this cycle of mutagenesis compared to the previous cycle may be due to changes in the assay procedure and recalibration of the incubator temperature. It should be noted that the recorded thermostabilities from each stage of mutagenesis are calculated from robotic data using abbreviated assay procedures. The data are intended to indicate the relative stabilities of enzyme mutants when assayed in the same screen, rather than providing an accurate quantitation of thermostability.

colonies of E. coli = assay: Luminescence of E. coli colonies expressing LucPpl luciferases at room temperature and on heating; type: cell-based; conditions: room temperature
Method: From colonies of E. coli expressing the luciferases, Luc81-5F01 and Luc81-6G01 produced luminescence most rapidly at room temperature upon addition of luciferin. The luminescence was more rapid and brighter than colonies expressing the wild-type green- and yellow-green-emitting luciferases. The luminescence from all the selected colonies appeared green-shifted compared to the yellow-green parent clone. […] Some of the mutant clones loose their luminescence at 65° C., but the three preferred clones remain bright above 70° C. No spectral changes upon heating the colonies were evident until above 70° C., where those clones still retaining activity began to red-shift slightly (sometime, the initial phases of enzyme denaturation are accompanied by a red shift in the luminescence). The luminescence characteristics of the three preferred mutants are quite similar.

B1: Luc81-6G01: LucPplYG mutant luciferase, SEQ ID NO:26 (protein)
chain: MMKREKNVIYGPEPLHPLEDLTAGEMLFRALRKHSHLPQALVDVVGDESLSYKEFFEATVLLAQSLHNCGYKMNDVVSICAENNTRFFIPVIAAWYIGMIVAPVNESYIPDELCKVMGISKPQIVFTTKNILNKVLEVQSRTNFIKRIIILDTVENIHGCESLPNGISRYSDGNIANFKPLHFDPVEQVAAILCSSGTTGLPKGVMQTHQNICVRLIHALDPRAGTQLIPGVTVLVYLPFFHAFGFSITLGYFMVGLRVIMFRRFDQEAFLKAIQDYEVRSVINVPSVILFLSKSPLVDKYDLSSLRELCCGAAPLAKEVAEVAAKRLNLPGIRCGFGLTESTSANIHSLRDEFKSGSLGRVTPLMAAKIADRETGKALGPNQVGELCIKGPMVSKGYVNNVEATKEAIDDDGWLHSGDFGYYDEDEHFYVVDRYKELIKYKGSQVAPAELEEILLKNPCIRDVAVVGIPDLEAGELPSAFVVKQPGKEITAKEVYDYLAERVSHTKYLRGGVRFVDSIPRNVTGKITRKELLKQLLEKAGG
modifications: Mutant luciferase
In the case of B1, the “stability of luminescence signal in assays of a few seconds” value [1] is reported as “most stable signal”, the decrease of activity [2] is reported as 100 fold and the “onset of luminescence in E. coli colonies upon addition of luciferin” value (colonies of E. coli) is reported as “most rapidly”.
